The text below walks through data of US20170151339A1 (priority 2014, published 2017).

Where a SMILES comes first, the peptide text is derived from it. Bridges are numbered along the chain shown (N, C = ends). [ ]: non-standard residue; d: D form. The star is where a group is joined. X1 = COc1cc2cc(c1Cl)N(C)C(=O)[C@H](OC(=O)[C@H](C)N(C)C(=O)CCS*)[C@]1(C)O[C@H]1[C@H](C)[C@@H]1C[C@@](O)(NC(=O)O1)[C@H](OC)/C=C/C=C(\C)C2; Thr(ol) = C[C@@H](O)[C@H](N)CO

A short description of data set [1]: Tolerability in rat PK study of cabazitaxel-RGD nanoparticles. Type of data set: in vivo. The following applies: rats, 1 mg/kg dose IV. The protocol: (§1) For PK studies, a 0.1 mg/mL solution was dosed at 10 mL/kg such that a 1 mg/kg IV bolus dose was introduced by tail vein injection into rats Following compound administration, blood was collected at 0.083 h, 0.25 h, 0.5 h, 1 h, 2 h, 4 h, 8 h, and 24 h post dose into lithium heparin coated vacuum tubes. Tubes were inverted for 5 minutes and then placed on wet ice until centrifuged for 5 minutes at 4° C. at 6000 rpm. Plasma was harvested, frozen at −80° C. and shipped to for bioanalysis on dry ice.

Data set [2] in a line: Pharmacokinetics of cabazitaxel-RGD nanoparticles in rats. The following applies: rat, 1 mg/kg IV bolus, plasma. It counts as in vivo. The protocol:
Nanoparticles are typically formulated in 10% sucrose and free drug formulations varied, but are typically dosed in 10% SOLUTOL®/10% sucrose, or physiological saline.
as §1
50 uL of rat plasma were precipitated with 300 uL of DMF and the resulting supernatant was measured for compound content by LC-MS/MS electrospray ionization in the positive mode.

The nature of data set [3]: Solubility in aqueous media containing Tween 80. It counts as physicochemical. To be noted: aqueous Tween 80. From the text:
In certain formulations, conjugate 1′ was used without any changes to its native lipophilicity (free conjugate). […] The tendency of conjugate 1 to retain in the nanoparticle despite a high aqueous solubility in Tween/water could be due to the high lipophilicity of cabazitaxel and its compatibility/miscibility with the polymeric matrix. The presence of leucine, proline, tryptophan and tyrosine in the LHRH peptide may also assist in the interaction of the conjugate with the polymeric matrix.
In certain formulations, conjugate 1 was used without any changes to its native lipophilicity (free conjugate). […] Without committing to any particular theory, the tendency of conjugate 1 to retain in the nanoparticle despite a high aqueous solubility in Tween®/water could be due to the high lipophilicity of cabazitaxel and its compatibility/miscibility with the polymeric matrix. The presence of two phenylalanine amino acids in the octreotide peptide may also assist in the interaction of the conjugate with the polymeric matrix.
In some formulations, conjugate 2 was used without any changes to its native lipophilicity (free conjugate). […] The tendency of 2 to be retained in the nanoparticle was reduced compared to 1.

The nature of data set [4]: Rat pharmacokinetics of nanoparticle formulations of 1 and 2. The following applies: rats, 1 mg/kg IV bolus, plasma, dose normalized. Type of data set: in vivo. The protocol:
Nanoparticles are typically formulated for in vivo delivery in 10% sucrose and free drug formulations varied, but are typically dosed in 10% Solutol®/10% sucrose, or physiological saline. In this example conjugate 1 without nanoparticle formulation was dosed as a solution in 20% propyleneglycol/80% aqueous sucrose (10%).
For rat pharmacokinetic studies using nanoparticles as described herein, a 0.1 mg/mL solution was dosed at 10 mL/kg such that a 1 mg/kg IV bolus dose was introduced by tail vein injection into rats. Following compound administration, blood was collected at 0.083 hours, 0.25 hours, 0.5 hours, 1 hour, 2 hours, 4 hours, 8 hours, and 24 hours post dose into lithium heparin coated vacuum tubes. Tubes were inverted for 5 minutes and then placed on wet ice until centrifuged for 5 minutes at 4° C. at 6000 rpm. Plasma was harvested, frozen at −80° C. and shipped to for bioanalysis on dry ice.
50 uL of rat plasma was precipitated with 300 uL of DMF and the resulting supernatant was measured for compound content by LC-MS/MS electrospray ionization in the positive mode.
Representative dose normalized rat pharmacokinetic curves for conjugate 1 and nanoparticle formulations of conjugate 1 are shown in FIG. 3.
Representative dose normalized rat pharmacokinetic curves for conjugate 2 and nanoparticle formulations of conjugate 2 are shown in FIG. 4.

Data set [5] relates to NCI-H524 (ATCC) human lung cancer cells. It counts as cell-based. The following applies: for IC50: treated 2 hours, further incubated 70 hours. The protocol:
Conjugates were assessed in an in vitro assay evaluating inhibition of cell proliferation. NCI-H524 (ATCC) human lung cancer cells were plated in 96 well, V-bottomed plates (Costar) at a concentration of 5,000 cells/well and 24 hours later were treated with compound for 2 hours and further incubated 70 hours. Compound starting dose was 20 μM and three fold serial dilutions were done for a total of ten points. After 2 hours of treatment, cells were spun down, the drug containing media was removed, and fresh complete medium was added and used to resuspend the cells, which were spun again. After removal of the wash media, the cells were resuspended in complete medium, then transferred into white walled, flat bottomed 96 well plates. […] Proliferation was measured using CellTiter Glo reagent using the standard protocol (Promega) and a Glomax multi+detection system (Promega). Percent proliferation inhibition was calculated using the following formula: % inhibition=(control−treatment)/control*100. Control is defined as vehicle alone. IC50 curves were generated using the nonlinear regression analysis (four parameter) with GraphPad Prism 6.

Data set [6] is described as follows: Rat pharmacokinetics of nanoparticle formulations of 1′. Type of data set: in vivo. The following applies: rats, 1 mg/kg IV bolus, plasma, dose normalized, Table 3. The protocol: Nanoparticles described herein were typically formulated in 10% sucrose and free drug formulations were generally formulated typically dosed in 10% Solutol®/l 0% sucrose, or physiological saline.
For pharmacokinetic studies, a 0.1 mg/mL solution was dosed at 10 mL/kg such that a 1 mg/kg IV bolus dose was introduced by tail vein injection into rats. Following compound administration, blood was collected at 0.083 hours, 0.25 hours, 0.5 hours, 1 hour, 2 hours, 4 hours, 8 hours, and 24 hours post-dose into lithium heparin coated vacuum tubes. Tubes were inverted for 5 minutes and then placed on wet ice until centrifuged for 5 minutes at 4° C. at 6000 rpm. Plasma was harvested, frozen at −80° C. and shipped to for bioanalysis on dry ice.
50 uL aliquots of rat plasma were precipitated with 300 uL of DMF and the resulting supernatant was measured for compound content by LC-MS/MS electrospray ionization in the positive mode.

Usually AUC stands for the area under the concentration-time curve, a measure of exposure. Low readings indicate less exposure, high ones more exposure. On to `CCCCN(CCSSC[C@@H]1NC(=O)[C@@H](Cc2ccccc2)NC(=O)[C@H](CC(=O)O)NC(=O)CNC(=O)[C@H](CCCNC(=N)N)NC1=O)C(=O)O[C@@H](C(=O)OC1C[C@@]2(O)[C@@H](OC(=O)c3ccccc3)[C@@H]3[C@]4(OC(C)=O)CO[C@@H]4C[C@H](OC)[C@@]3(C)C(=O)[C@H](OC)C(=C1C)C2(C)C)[C@@H](NC(=O)OC(C)(C)C)c1ccccc1` (stereo partly drawn) [BT-568], for which the “tolerability observations post dose” value in data set [1] is “lethargy and labored breathing were observed immediately post dose in all three rats”. For the same compound, in data set [1] (three rats), the mortality entry is listed as “one of the three animals died”. In data set [2], this compound displayed an AUC of 5.3 µM·h.
By solubility is commonly meant the concentration that dissolves in the medium under given conditions. A higher solubility goes with a readily soluble substance. Usually AUC(0-inf) stands for total exposure, with the tail of the curve extrapolated. Read a low AUC(0-inf) as low exposure. For orientation: IC50 means the concentration that gives 50% inhibition. Higher therefore signals weaker potency in that assay. Take `CO[C@H]1C(=O)[C@]2(C)[C@@H](OC)C[C@H]3OC[C@@]3(OC(C)=O)[C@H]2[C@H](OC(=O)c2ccccc2)[C@]2(O)C[C@H](OC(=O)[C@H](OC(=O)OCCSSCCC(=O)N[C@H](Cc3ccccc3)C(=O)N[C@H]3CSSC[C@@H](C(=O)N[C@H](CO)[C@@H](C)O)NC(=O)[C@H]([C@@H](C)O)NC(=O)[C@H](CCCCN)NC(=O)[C@@H](Cc4c[nH]c5ccccc45)NC(=O)[C@H](Cc4ccccc4)NC3=O)[C@@H](NC(=O)OC(C)(C)C)c3ccccc3)C(C)=C1C2(C)C` [Conjugate 1]: in data set [3], the solubility was above 7000 µg/mL and the “solubility in aqueous media containing surfactant” value is reported as “high solubility”. Also, the AUC(0-inf) in data set [4] (conjugate 1 and its nanoparticles, Table 11) came to 18.3 µM·h. Further, the IC50 in data set [5] was determined as 110 nM. In data set [6], this compound came in with an AUC(0-inf) of 2.19 µM·h.
In data set [5], `CCCCN(CCSSCCC(=O)N[C@H](Cc1ccccc1)C(=O)N[C@H]1CSSC[C@@H](C(=O)N[C@H](CO)[C@@H](C)O)NC(=O)[C@H]([C@@H](C)O)NC(=O)[C@H](CCCCN)NC(=O)[C@@H](Cc2c[nH]c3ccccc23)NC(=O)[C@H](Cc2ccccc2)NC1=O)C(=O)O[C@@H](C(=O)O[C@H]1C[C@@]2(O)[C@@H](OC(=O)c3ccccc3)[C@@H]3[C@]4(OC(C)=O)CO[C@@H]4C[C@H](OC)[C@@]3(C)C(=O)[C@H](OC)C(=C1C)C2(C)C)[C@@H](NC(=O)OC(C)(C)C)c1ccccc1` [Conjugate 3] gave an IC50 above 20000 nM.
With `COc1cc2cc(c1Cl)N(C)C(=O)C[C@H](OC(=O)[C@H](C)N(C)C(=O)CCSSCCC(=O)N[C@H](Cc1ccccc1)C(=O)N[C@H]1CSSC[C@@H](C(=O)N[C@H](CO)[C@@H](C)O)NC(=O)[C@H]([C@@H](C)O)NC(=O)[C@H](CCCCN)NC(=O)[C@@H](Cc3c[nH]c4ccccc34)NC(=O)[C@H](Cc3ccccc3)NC1=O)[C@]1(C)O[C@H]1[C@H](C)[C@@H]1C[C@@](O)(NC(=O)O1)[C@H](OC)/C=C/C=C(\C)C2` [Conjugate 4], it took 229 nM to reach half-maximal inhibition in data set [5] (IC50).
In data set [5], `CC[C@H](C)[C@@H]([C@@H](CC(=O)N1CCC[C@H]1[C@H](OC)[C@@H](C)C(=O)N[C@H](C)[C@@H](O)c1ccccc1)OC)N(C)C(=O)[C@@H](NC(=O)[C@H](C(C)C)N(C)C(=O)OCc1ccc(NC(=O)[C@H](CCCNC(N)=O)NC(=O)[C@@H](NC(=O)CCCCCN2C(=O)CC(SCCC(=O)N[C@H](Cc3ccccc3)C(=O)N[C@H]3CSSC[C@@H](C(=O)N[C@H](CO)[C@@H](C)O)NC(=O)[C@H]([C@@H](C)O)NC(=O)[C@H](CCCCN)NC(=O)[C@@H](Cc4c[nH]c5ccccc45)NC(=O)[C@H](Cc4ccccc4)NC3=O)C2=O)C(C)C)cc1)C(C)C` (stereo partly drawn) [Conjugate 5] yielded an IC50 of 433 nM.
With `COc1cc2cc(c1Cl)N(C)C(=O)C[C@H](OC(=O)[C@H](C)N(C)C(=O)CCSSCCC(=O)NCCOCCOCCOCCOCCOCCOCCOCCOCCC(=O)N[C@H](Cc1ccccc1)C(=O)N[C@H]1CSSC[C@@H](C(=O)N[C@H](CO)[C@@H](C)O)NC(=O)[C@H]([C@@H](C)O)NC(=O)[C@H](CCCCN)NC(=O)[C@@H](Cc3c[nH]c4ccccc34)NC(=O)[C@H](Cc3ccccc3)NC1=O)[C@]1(C)O[C@H]1[C@H](C)[C@@H]1C[C@@](O)(NC(=O)O1)[C@H](OC)/C=C/C=C(\C)C2` [Conjugate 6], in data set [5], the IC50 was found to be 234 nM.
The same measure, in the same setting: with `COc1cc2cc(c1Cl)N(C)C(=O)[C@H](OC(=O)[C@H](C)N(C)C(=O)CCSSC[C@H](N)C(=O)N[C@@H](CCCCN)C(=O)N[C@@H](CCCCN)C(=O)N[C@@H](CCCCN)C(=O)N[C@@H](CCCCN)C(=O)N[C@H](Cc1ccccc1)C(=O)N[C@H]1CSSC[C@@H](C(=O)N[C@H](CO)[C@@H](C)O)NC(=O)[C@H]([C@@H](C)O)NC(=O)[C@H](CCCCN)NC(=O)[C@@H](Cc3c[nH]c4ccccc34)NC(=O)[C@H](Cc3ccccc3)NC1=O)[C@]1(C)O[C@H]1[C@H](C)[C@@H]1C[C@@](O)(NC(=O)O1)[C@H](OC)/C=C/C=C(\C)C2` [Conjugate 7] (H-C(X1)KKKK[dF]CF[dW]KTC[Thr(ol)]; disulfide 7-12) the figure was 955 nM.
With `COc1cccc2c1C(=O)c1c(O)c3c(c(O)c1C2=O)C[C@@](O)(C(=O)COC(=O)CCCC(=O)N[C@H](Cc1ccccc1)C(=O)N[C@H]1CSSC[C@@H](C(=O)N[C@H](CO)[C@@H](C)O)NC(=O)[C@H]([C@@H](C)O)NC(=O)[C@H](CCCCN)NC(=O)[C@@H](Cc2c[nH]c4ccccc24)NC(=O)[C@H](Cc2ccccc2)NC1=O)C[C@@H]3O[C@H]1C[C@H](N)[C@H](O)[C@H](C)O1` [Example 2], in data set [4] (conjugate 2 and its nanoparticles, Table 12), the AUC(0-inf) stood at 14.3 µM·h.
Turning to `C[C@@H](O)[C@@H]1NC(=O)[C@H](CCCCN)NC(=O)[C@@H](Cc2c[nH]c3ccccc23)NC(=O)[C@H](Cc2ccccc2)NC(=O)[C@@H](NC(=O)[C@H](N)Cc2ccccc2)CSSC[C@@H](C(=O)N[C@H](CO)[C@@H](C)O)NC1=O` [Octreotide, reference compound], in data set [5] (octreotide alone), the “effect on cell proliferation” value was “no significant effect”.
